This is an account of results in article PMC3432114.

One test deals with RAGE (Homo sapiens) (UniProt Q15109). The note with it: cited from earlier work.
For test [1], the target named is N-methyl-D-aspartate receptor (NMDAR) of C44 murine erythroleukaemia (MEL) cell membranes (mouse (endogenous in C44 MEL cells)) (UniProt P35438).

Chain of HMGB1 (P09429 whole entry): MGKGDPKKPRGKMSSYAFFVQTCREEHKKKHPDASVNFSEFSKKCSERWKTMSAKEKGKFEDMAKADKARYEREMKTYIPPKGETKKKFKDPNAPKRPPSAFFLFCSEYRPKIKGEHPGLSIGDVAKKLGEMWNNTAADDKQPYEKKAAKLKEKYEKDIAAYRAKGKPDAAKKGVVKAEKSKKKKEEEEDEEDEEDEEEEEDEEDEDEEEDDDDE
Chain of UniProt Q15109 (Q15109 23-404): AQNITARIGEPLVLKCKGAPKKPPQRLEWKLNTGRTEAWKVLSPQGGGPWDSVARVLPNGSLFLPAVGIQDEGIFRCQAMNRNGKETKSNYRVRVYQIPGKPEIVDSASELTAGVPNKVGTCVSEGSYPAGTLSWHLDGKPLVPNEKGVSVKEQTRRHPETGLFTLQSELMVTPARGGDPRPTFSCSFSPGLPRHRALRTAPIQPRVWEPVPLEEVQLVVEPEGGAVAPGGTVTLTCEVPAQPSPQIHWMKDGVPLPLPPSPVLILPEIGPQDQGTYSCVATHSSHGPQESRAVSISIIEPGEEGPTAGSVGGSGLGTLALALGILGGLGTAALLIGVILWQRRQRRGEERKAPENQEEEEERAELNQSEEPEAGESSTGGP

Take HMGB1 (from UniProt P09429): in the test with RAGE (Homo sapiens), the Kd is 10 nM.

“high mobility group box 1 (HMGB1) protein, eukaryotic recombinant (from UniProt P63159 1-215) (natural protein)” gave a percent of differentiated (benzidine-positive) MEL cells after 24 h with HMBA and 250 pM HMGB1 (6% with HMBA alone; the increase abolished by MK-801 and antagonized by CGS 19755) in test [1] of 12%.

By Kd is commonly meant the free concentration of one partner at which half of the binding sites on the other are occupied at equilibrium, for simple one-to-one binding.
